The target in the test is Fc-FGF21 from E. coli (UniProt Q9NSA1). As to the kind of experiment: BLI.

In publication PMC11985657 one finds Kd data, which are given here for one substance.

A word on the Kd: it is the free concentration of one partner at which half of the binding sites on the other are occupied at equilibrium, for simple one-to-one binding. A higher Kd goes with a looser complex.

“Human KLB (from UniProt Q86Z14 1-996) (receptor)” showed a dissociation constant Kd of 10.1 nM.
